Where a chain is given by its changes, count along the chain named. Numbers in names are those of the source.
B1: GK1.5 FR cDb (scFv, V domains shown)
VH: EVKLQESGGGLVQPGRSLKLSCAASGFNIRRTYMHWVRQAPGKGLEWIGRIDPANGNTIYGEKFKSKFTISRDNAQNTLYLQMSKLGSEDTAIYYCAIGVQYLDYWGQGVMVTVSS
VL: DIVLTQSPAMAMSPGERITISCRATESVSTLIHWYQQKPGQQPKLLIYLTSHLDSGVPARFSGSGSGTDFTLTIDPVEANDTATYYCQQTWNDPWTFGGGTKLELK
notes: as the VH of m1: CDRs of GK1.5 on the VH framework of YTS169; five amino acid linker, printed as G4S (VH-G4S-VL-Cys-His); C-terminal cysteine residue for site-specific conjugation, before the His6 tag; cys-diabody: covalent homodimer of the scFv; parent of m1; also called CDR-grafted cys-diabody; glycosylated GK1.5 FR cDb; source: production and purification told in the supplementary information
B2: GK1.5 N80D cDb (scFv, V domains shown)
VH: B1 VH
VL: B1 VL with N80D
notes: VH: CDRs of GK1.5 (contact definition) on the VH framework of YTS169; five amino acid linker, printed as G4S (VH-G4S-VL-Cys-His); VL of GK1.5 FR cDb (CDRs of GK1.5 on the VL framework of YTS169) with N80D (L81 in Kabat numbering); C-terminal cysteine residue for site-specific conjugation, before the His6 tag; cys-diabody: covalent homodimer of the scFv (MW 52.2 kDa), inter-chain disulfide between …
B3: Parental anti-mouse CD4 antibody GK1.5 (rat IgG2b,k) (antibody, V domains shown)
VH: EVQLQQSGAELGKPGTSVKLSCKVSDYNIRRTYMHWVNQRPGKGLEWIGRIDPANGNTIYGEKFKSKATLTADTSSNTAYMQLSQLKSDDTAFYYCAIGVQYLDYWGQGVMVTVSS
VL: DIVLTQSPASLAVSPGERVTISCRATESVSTLIHWFQQRPGQQPKLLIYLTSHLDSGVPARFSGSGSGTDFTLTIDPVEADDTATYYCQQTWNDPWTFGGGTKLELK
notes: VH of hybridoma GK1.5; constant region of rat IgG2b heavy chain; VL of hybridoma GK1.5; constant region of rat kappa light chain; rat IgG2b, kappa; also called GK1.5 IgG; parental full-length GK1.5 IgG; source: bought: BioLegend Cat# 100401; copies: 2 + 2

Legend:
[1] = molecular target: mouse CD4 on splenocytes / CD4+ T cells (mouse (endogenous in splenocytes)) (UniProt P06332)
mouse CD4 on splenocytes / CD4+ T cells (mouse (endogenous in splenocytes)), sequence (P06332 27-457): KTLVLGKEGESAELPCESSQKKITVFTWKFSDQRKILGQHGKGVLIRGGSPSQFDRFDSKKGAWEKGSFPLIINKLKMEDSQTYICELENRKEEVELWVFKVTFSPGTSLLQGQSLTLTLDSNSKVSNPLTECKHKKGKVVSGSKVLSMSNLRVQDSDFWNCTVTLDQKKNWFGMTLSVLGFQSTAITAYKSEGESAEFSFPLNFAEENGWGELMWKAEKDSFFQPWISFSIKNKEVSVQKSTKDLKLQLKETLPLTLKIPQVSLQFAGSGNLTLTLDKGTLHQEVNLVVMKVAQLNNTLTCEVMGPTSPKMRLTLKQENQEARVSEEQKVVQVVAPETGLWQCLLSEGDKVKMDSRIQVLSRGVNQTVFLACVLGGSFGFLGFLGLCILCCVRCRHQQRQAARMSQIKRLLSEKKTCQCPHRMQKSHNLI

[2] = molecular target: DFO-GK1.5 FR cDb (rat); experiment: SEC; DFO-conjugated cDbs (inter-chain disulfide broken) compared with unconjugated cDbs; single peaks
[3] = molecular target: T1, recombinant mouse CD4 (Mus musculus, strain , UniProt P06332); experiment: ELISA; saturation binding curves on immobilized recombinant mouse CD4; half-maximal binding (EC50), apparent affinity; conditions: both partners purified
T1 construct: CD4, mouse, recombinant; the supplementary information may tell source and limits; also called immobilized CD4 antigen; soluble murine CD4
T1 sequence (P06332 27-457): as above

[4] = molecular target: mouse CD4 on splenocytes / CD4+ T cells (mouse (endogenous in splenocytes)) (UniProt P06332); remark: listed apart in the source
[5] = molecular target: T2, BSA (Bos taurus, UniProt P02769); experiment: ELISA; control: BSA instead of CD4; data not shown; conditions: both partners purified
T2 construct: serum albumin, printed only as BSA; also called control (BSA)
T2 sequence (P02769 25-607): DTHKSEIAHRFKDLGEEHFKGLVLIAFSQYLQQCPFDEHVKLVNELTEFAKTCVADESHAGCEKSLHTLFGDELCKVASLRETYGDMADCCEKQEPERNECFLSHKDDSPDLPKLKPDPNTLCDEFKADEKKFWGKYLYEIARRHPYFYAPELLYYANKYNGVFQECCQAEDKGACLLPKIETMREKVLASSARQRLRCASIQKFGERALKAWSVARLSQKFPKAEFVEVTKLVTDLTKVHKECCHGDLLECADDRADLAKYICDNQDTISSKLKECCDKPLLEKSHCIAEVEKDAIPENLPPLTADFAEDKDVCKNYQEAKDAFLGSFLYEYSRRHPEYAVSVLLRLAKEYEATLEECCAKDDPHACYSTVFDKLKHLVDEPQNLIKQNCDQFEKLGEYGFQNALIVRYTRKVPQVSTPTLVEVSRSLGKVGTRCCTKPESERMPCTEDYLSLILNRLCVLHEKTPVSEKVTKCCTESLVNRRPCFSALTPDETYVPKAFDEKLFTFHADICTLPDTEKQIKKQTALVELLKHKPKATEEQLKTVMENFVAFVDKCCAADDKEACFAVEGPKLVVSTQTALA

[6] = molecular target: DFO-GK1.5 N80D cDb (rat); experiment: SEC; DFO-conjugated cDbs (inter-chain disulfide broken) compared with unconjugated cDbs; single peaks

| Binder | ex vivo biodistribution 22 h p.i. of ^89Zr-GK1.5 FR cDb (2 µg) in C57BL/6J mice: uptake in spleen [1] | ex vivo biodistribution 22 h p.i. of ^89Zr-GK1.5 FR cDb: uptake in axillary, brachial lymph nodes [1] | ex vivo biodistribution 22 h p.i. of ^89Zr-GK1.5 FR cDb: uptake in cervical lymph nodes [1] | ex vivo biodistribution 22 h p.i. of ^89Zr-GK1.5 FR cDb: uptake in inguinal lymph nodes [1] | stoichiometry N [2] | binding result [3] | ex vivo biodistribution 22 h p.i. of ^89Zr-GK1.5 N80D cDb (2 µg) in C57BL/6J mice: uptake in spleen [1] | ex vivo biodistribution 22 h p.i. of ^89Zr-GK1.5 N80D cDb, blocked by co-injection of 60 µg (3 mg/kg) non-radioactive GK1.5 N80D cDb: uptake in spleen [1] | ex vivo biodistribution 22 h p.i. of ^89Zr-GK1.5 N80D cDb, blocked by co-injection of non-radioactive GK1.5 N80D cDb: uptake in axillary, brachial lymph nodes [1] | ex vivo biodistribution 22 h p.i. of ^89Zr-GK1.5 N80D cDb, blocked by co-injection of non-radioactive GK1.5 N80D cDb: uptake in cervical lymph nodes [1] | ex vivo biodistribution 22 h p.i. of ^89Zr-GK1.5 N80D cDb, blocked by co-injection of non-radioactive GK1.5 N80D cDb: uptake in inguinal lymph nodes [1] | ex vivo biodistribution 22 h p.i. of ^89Zr-GK1.5 N80D cDb: uptake in axillary, brachial lymph nodes [1] | ex vivo biodistribution 22 h p.i. of ^89Zr-GK1.5 N80D cDb: uptake in cervical lymph nodes [1] | ex vivo biodistribution 22 h p.i. of ^89Zr-GK1.5 N80D cDb: uptake in inguinal lymph nodes [1] | ex vivo biodistribution 22 h p.i. of ^89Zr-GK1.5 N80D cDb, blocked by co-injection of non-radioactive GK1.5 N80D cDb: uptake in spleen (value of the text, differs from Table 2) [4] | binding result [5] | stoichiometry N [6] | EC50 [3] |
| --- | --- | --- | --- | --- | --- | --- | --- | --- | --- | --- | --- | --- | --- | --- | --- | --- | --- | --- |
| B1 | 20.7 %ID/g | 10.5 %ID/g | 16.7 %ID/g | 13 %ID/g | 2 | binds | – | – | – | – | – | – | – | – | – | – | – | – |
| B2 | – | – | – | – | – | – | 48.5 %ID/g | 9.7 %ID/g | 16.6 %ID/g | 20 %ID/g | 18.3 %ID/g | 43.5 %ID/g | 66.2 %ID/g | 44.3 %ID/g | 8.1 %ID/g | no binding | 2 | 3 nM |
| B3 | – | – | – | – | – | – | – | – | – | – | – | – | – | – | – | – | – | 2.25 nM |

Reference: PMC12628392, “Reengineered Anti-CD4 Cys-diabody Variants for ^89Zr-immunoPET of CD4^+ T Cells in Immunocompetent Mice” (Molecular Imaging and Biology, 2025)
